Columns and labels:
SUMO-StPTB1 = test: phage ELISA; details: parent: est. 0.18; read off a plot
SUMO-StPTB6 = test: phage ELISA; details: parent: est. 0.19; read off a plot

Substance	response (SUMO-StPTB1)	response (SUMO-StPTB6)
phage-displayed StNova1 subdomain S2 G7del; G11del; G15del; G18del	0.079 λ490	0.079 λ490
phage-displayed StNova1 subdomain S2 G7del; G11del; P13del	0.044 λ490	0.043 λ490
phage-displayed StNova1 subdomain S2 G15del; G18del; P21del	0.11 λ490	0.13 λ490

Reference: paper PMC3663837
